Results taken from patent US10865391B2, “Glutamate dehydrogenase mutants and their application in preparation of L-phosphinothricin” (ZHEJIANG UNIVERSITY, priority 2018, dated 2020).
Where a chain is given by its changes, count along the chain named. Numbers in names are those of the source.

B1: LsGluDH-A144G: LsGluDH mutant A144G, SEQ ID NO. 15 (protein)
chain: MSENLNLFTSTQDVIQDALNKLGYDEAMYELLKEPLRMLQVRIPVKMDDGTTKVFTGYRAQHNDAVGPTKGGVRFHPQVSEEEVKALSMWMTLKCGIVDLPYGGGKGGVICDPRQMSMGEIERLSRGYVRAVSQIVGPTKDIPGPDVFTNAQIMAWMMDEYSRMDEFNSPGFITGKPLVLGGSQGRDRATAQGVTIVIEEAAKKRGIDIKGARVVIQGFGNAGSFLAKFMHDLGAKVIGISDAYGALHDPEGLDIDYLLDRRDSFGTVTTLFENTISNKELLELDCDILVPAAIENQITADNAHNIKADIVVEAANGPTTAEATKILTERGILLVPDVLASAGGVTVSYFEWVQNNQGYYWTEEEVEERLYKKMVEAFDNVYTTATTRNINMRLAAYMVGVRRTAEASRFRGWV
modifications: Lysinibacillus sphaericus glutamate dehydrogenase mutant
B2: PeGluDH-V375A: PeGluDH mutant V375A, SEQ ID NO. 6 (protein)
chain: MIESVDHFLARLQQRDPAQPEFHQAVEEVLRSLWPFLEQNPHYLEAGILERMVEPERAVLFRVSWVDDQGKVQVNRGYRIQMSSAIGPYKGGLRFHPSVNLGVLKFLAFEQVFKNSLTSLPMGGGKGGSDFDPKGKSDAEVMRFCQAFMSELYRHIGADLDVPAGDIGVGAREIGFLFGQYKRLANQFTSVLTGKGMTYGGSLIRPEATGYGCVYFAEEMLKRQEQRIDGRRVAISGSGNVAQYAARKVMDLGGKVISLSDSEGTLFCEAGLTDEQWDALMELKNVKRGRISELAGRFGLEFRKGQTPWSLACDIALPCATQNELNADDARTLLRNGCICVAEGANMPTTLDAVDIFIEAGILYAPGKASNAGGAAVSGLEMSQNAMRLLWTAGEVDSKLHHIMQSIHHVCVHYGEEADGRINYVKGANIAGFVKVADAMLAQGVV
modifications: Pseudomonas entomophila glutamate dehydrogenase mutant
B3: LsGluDHp-V386A: LsGluDHp mutant V386A, SEQ ID NO. 8 (protein)
chain: MTITTVSNEQLAKEYVDGVFEQLKQQNCHQAEFLQAAEEIFISLVPVFVQHPEYIKANILSRIVEPDRIISFRVAWQDDHNQVQVNRGYRVQYSNVMGPYKGGLRFHPSVNESIIKFLGFEQIFKNALTGQPIGGGKGGSNFDPKGKSDSEIMRFCQAFMTELYRHIGPDVDVPAGDIGVGAREVGYLWGQYKRLTKASESGVLTGKTPGYGGSLARKEATGYGTVYFVNEMLKDVNDSFEGKTVVVSGSGNVSTYAIEKAQQYGAKVVACSDSSGYIYDPEGLDLDVIKEIKEVKGDRISTYVSYRPNATFTNGCTGIWTIPCDIALPCATQNEINGESARTLISNGVKAIGEGANMPSDLEAINEFLNAGVLFGPAKAANAGGAAVSALEMAQDSSRVFWSFEEVDAKLHQIMKDIYSDSKAAAEKYGFPGNLVMGANIAGFIKVADGMLTEGIY
modifications: Lysinibacillus sphaericus glutamate dehydrogenase mutant
B4: BmGluDH-A156G: BmGluDH mutant A156G, SEQ ID NO. 13 (protein)
chain: MVADKMQDSKNSQEEKHDVLKSTQTVIHKALEKLGYPDEVYELLKEPLRMMTVKIPVRMDDGSVKIFTGHRAQHNDAVGPTKGGIRFHPNVTEKEVKALSIWMSLKCGIVDLPYGGGKGGIVCDPRNMSFGELERLSRGYVRAISQIVGPTKDIPGPDVFTNSQIMAWMMDEYSRIDEFNSPGFITGKPLVLGGSHGRETATAKGVTICIREAAKKRGIELQGARVVVQGFGNAGSFLAKFMHDAGAKIVGISDAYGALHDPNGLDIDYLLDRRDSFGTVTKLFNNTISNKELLELDCDILVPAAIENQITEENAHNIQASIVVEAANGPTTLEATRILSERGILLVPDVLASAGGVTVSYFEWVQNNQGYYWTEEEVEEKLEKVMVKSFNNIYETSTTRKVDMRLAAYMIGVRKMAEGSRFRGWI
modifications: Bacillus megaterium glutamate dehydrogenase mutant
B5: GsGluDH-A153G: GsGluDH mutant A153G, SEQ ID NO. 9 (protein)
chain: MAADKHTEEKGQQDDVLASTQIVIHRALEKLGYPEEVYELLKEPIRVLTVRIPVRMDDGSVKIFTGYRAQHNDAVGPTKGGVRFHPDVTEREVKALSIWMSLKCGIVDLPYGGGKGGIVCDPRTMSFRELERLSRGYVRAISQIVGPTKDIPGPDVFTNSQIMAWMMDEYSRIREFDSPGFITGKPLVLGGSHGRETATAKGVTICIREAAKKRGLSLEGARVVVQGFGNAGSYLAKFLHDAGAKVVGISDVYGALYDPNGLDIDYLLERRDSFGTVTKLFKNTISNKELLELDCDILVPAAIENQITAENAPRIKASIVVEAANGPTTLEATEILTQRGILLVPDVLASAGGVTVSYFEWVQNNQGYYWTEEEVEQRLEKVMVKAFNNVYEMAQTRRVDMRLAAYMVGVRKMAEACRFRGWV
modifications: Geobacillus stearothermophilus glutamate dehydrogenase mutant
B6: BsGluDH-A154G: BsGluDH mutant A154G, SEQ ID NO. 11 (protein)
chain: MSAKQVSKDEEKEALNLFLSTQTIIKEALRKLGYPGDMYELMKEPQRMLTVRIPVKMDNGSVKVFTGYRSQHNDAVGPTKGGVRFHPEVNEEEVKALSIWMTLKCGIANLPYGGGKGGIICDPRTMSFGELERLSRGYVRAISQIVGPTKDIPGPDVYTNSQIMAWMMDEYSRLREFDSPGFITGKPLVLGGSQGRETATAQGVTICIEEAVKKKGIKLQNARIIIQGFGNAGSFLAKFMHDAGAKVIGISDANGGLYNPDGLDIPYLLDKRDSFGMVTNLFTDVITNEELLEKDCDILVPAAISNQITAKNAHNIQASIVVEAANGPTTIDATKILNERGVLLVPDILASAGGVTVSYFEWVQNNQGYYWSEEEVAEKLRSVMVSSFETIYQTAATHKVDMRLAAYMTGIRKSAEASRFRGWV
modifications: Bacillus subtilis glutamate dehydrogenase mutant
B7: CgGluDH: wild type glutamate dehydrogenase from Corynebacterium glutamicum, NP_601279.1, NADPH-specific (protein, UniProt P31026 1-447, looked up)
NADP-specific glutamate …: MTVDEQVSNYYDMLLKRNAGEPEFHQAVAEVLESLKIVLEKDPHYADYGLIQRLCEPERQLIFRVPWVDDQGQVHVNRGFRVQFNSALGPYKGGLRFHPSVNLGIVKFLGFEQIFKNSLTGLPIGGGKGGSDFDPKGKSDLEIMRFCQSFMTELHRHIGEYRDVPAGDIGVGGREIGYLFGHYRRMANQHESGVLTGKGLTWGGSLVRTEATGYGCVYFVSEMIKAKGESISGQKIIVSGSGNVATYAIEKAQELGATVIGFSDSSGWVHTPNGVDVAKLREIKEVRRARVSVYADEVEGATYHTDGSIWDLKCDIALPCATQNELNGENAKTLADNGCRFVAEGANMPSTPEAVEVFRERDIRFGPGKAANAGGVATSALEMQQNASRDSWSFEYTDERLQVIMKNIFKTCAETAAEYGHENDYVVGANIAGFKKVADAMLAQGVI
B8: CgGluDH-V376A: CgGluDH mutant V376A, SEQ ID NO. 4 (protein)
chain: B7 NADP-specific glutamate … with V376A
modifications: Corynebacterium glutamicum glutamate dehydrogenase mutant
B9: CgGluDH-A166G: CgGluDH mutant A166G, SEQ ID NO. 3 (protein)
chain: B7 NADP-specific glutamate … with A166G
modifications: Corynebacterium glutamicum glutamate dehydrogenase mutant

Experiment: Standard enzyme activity measurement toward PPO, crude enzyme (per volume fermentation broth)
Format: biochemical
Conditions: toward PPO; for Fold change: enzyme activity of mutant versus wild type
Protocol: The preserved recombinant E. coli is streaked onto the plate for activation. Single colonies are picked and inoculated into 5 mL LB liquid medium containing 50 μg/mL kanamycin and cultured at 37° C. for 12 h. The culture is transferred to 50 mL fresh LB liquid medium containing 50 μg/mL kanamycin at a 2% inoculum, and then incubated at 37° C. until the OD600 reaches 0.6; after that, add IPTG to a final concentration of 0.5 mM, and then proceed with induction culture under the temperature of 18° C. for 16 h.
After the cultivation, the culture is centrifuged at 10000 rpm for 10 min; discard supernatant, and collect cells. The harvested cells are washed for 2 times using pH 7.5 50 mM phosphate buffer. After that, the cells are re-suspend into the pH 7.5 phosphate buffer and disrupted ultrasonically (400W for 30 times, Ultrasonic time is 3 s, and the interval is 7 s). The cell disrupted solution is centrifuged at 12000 g for 5 min at 4° C. to remove the precipitate, and the supernatant obtained is the crude enzyme containing recombinant glutamate dehydrogenase
The standard enzyme activity measurement system: Appropriate amount of enzyme, 100 mM substrate, 10 mM coenzyme (NADH or NADPH), 500 mM NH4^+ ((NH4)2SO4); total system volume is up to 400 μL; reaction medium is pH 7.5 phosphate buffer. 35° C. reaction for 10 min; after that, add 40 uL 5 M NaOH to terminate reaction.
Definition of enzyme activity unit: The quantity of enzyme as required by generation of 1 μmol L-phosphinothricin per minute under standard reaction conditions.
Proceed with induction culture of constructed mutants, and prepare crude enzyme solution.

[1] = crude enzyme, standard system, N.D. = no detectable activity

Row | Molecule | Enzyme activity of mutants (U/mL) [1] [U/mL] | Fold change | Enzyme activity of wild type (U/mL) [1] [U/mL]
1 | B1 | 1.69 |  | 
2 | B2 | 11.06 | 107 | 
3 | B3 | 12.34 | 588 | 
4 | B4 | 0.34 |  | 
5 | B5 | 0.04 |  | 
6 | B6 | 0.50 |  | 
7 | B7 |  |  | 0.011
8 | B8 | 2.48 | 225 | 
9 | B9 | 0.34 | 31 | 
